The results in this text go back to PMC3034312.

Substrate in this series: CC(C)=CCC/C(C)=C/CC/C(C)=C/CO[P@@](=O)(O)OP(=O)(O)O
The series is described as follows: steady-state kinetics, 30-min radiolabel incubations. To be noted: labelled compound ([1-3H]-FPP, 0.25 to 7.5 μM). The format is biochemical, Streptomyces clavuligerus.

B1: SSCG_02150; (−)-δ-cadinene synthase (Streptomyces clavuligerus) (protein)
chain: MSTRPVEGSAIWDVLSPHSPHAAAADGKTLVWVEAGELCGHDTAESANLARIRPGLLAAFCHPKATEDDLTLITKWMAWLFLLDDRIDESDLGRDADLLDGHLQDLQGVALGIRTASGPMSRALEEIITQASAGMGDAWQLRFRRNISDYLLACVWQAAHRQAGEFPDPEVFPHWRRAFGAIMPSFDLIERTDGGALPSCVYYSRPYQSLLTAAADLVCWTNDLMTVDKEAAHGDLHNLVLVTEHDRHQDRRTASAAVSAACEQRMRAHTSARRDLTGLTAALGLPDTVRTHADDCAASLLVWVRGHLEWGLETPRYRPGTTGTGTD
Turning to B1, the Km was determined as 1.4 ± 0.1 µM and the kcat is 1.14 ± 0.03 × 10^−3 s^−1.

B2: SSCG_03688; (+)-T-muurolol synthase (Streptomyces clavuligerus) (protein)
chain: MSLNHSDLMFYCPVDDLPHPAASGVNDRTLDWASGQGIPTADRDAGRLRAMAPGLLAARIAPDARGPVLDAFADHHTWLFAFDDEYCDRADGSGITEWASFLARLHRVVETGESALLPGNPYGLALRDIACRLSTYTTPAQLAEWLEALRSYFAALVWERSRRRDDDRLQSLDDYLLLRLRNGAMHTSITLLDTVNGYVLPRELRETPGVRALVEMTALLVSVDNDILSHHKESTSGTREANLLDVLGRTGHTTPGEAVAQAVALRNEIMRQFVRVAERVRTPAAVPELYRFTTGLARWIRANLDFSLTTTRYTGPVTERAALSPHEVPPLSGQGPAPARSDVIGWWWRIPEPLPEPGSDGADTPVRKRRAGDRPPTAGRGGAPHHQRTGPPPPVLPGGITASRSSGLQQSTWRREHR
B2: the Km worked out at 2.7 ± 0.3 µM and the kcat is given as 1.63 ± 0.09 × 10^−3 s^−1.

As usually defined, the Km is the substrate concentration at which the rate is half of its maximum.
